Assay results published in article PMC12413468.

Target: Fluorescent probe peptide NH3+-NLVGRF-[DAP-FAM]-VSPVPE-COO- (human)
Assay: fluorescence polarisation

His6-tagged OSR1 CCT domain (human OSR1 433–527), sequence (O95747 433-527): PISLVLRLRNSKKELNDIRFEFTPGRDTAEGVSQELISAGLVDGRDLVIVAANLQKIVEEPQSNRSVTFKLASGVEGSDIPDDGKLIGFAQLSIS

Row | Kd [µM] | fold decrease in peptide probe binding affinity against wild type [fold] | Substance
1 | 0.67 |  | His6-tagged SPAK CCT domain (mouse SPAK 459–556) (from UniProt Q9Z1W9 459-556) (domain or fragment)
2 | 1.5 |  | His6-tagged OSR1 CCT domain (human OSR1 433–527) (from UniProt O95747 433-527) (domain or fragment)
3 |  | 50 | Purified SPAK CCT domain D477Q (domain or fragment)
